This note sets out measurements from IntAct's records for PubMed 29892012.

B1: Protein Largen (Homo sapiens), Q569H4 (parent)
chain: MSAKSKGNPSSSCPAEGPPAASKTKVKEQIKIIVEDLELVLGDLKDVAKELKEVVDQIDTLTSDLQLEDEMTDSSKTDTLNSSSSGTTASSLEKIKVQANAPLIKPPAHPSAILTVLRKPNPPPPPPRLTPVKCEDPKRVVPTANPVKTNGTLLRNGGLPGGPNKIPNGDICCIPNSNLDKAPVQLLMHRPEKDRCPQAGPRERVRFNEKVQYHGYCPDCDTRYNIKNREVHLHSEPVHPPGKIPHQGPPLPPTPHLPPFPLENGGMGISHSNSFPPIRPATVPPPTAPKPQKTILRKSTTTTV
B2: E3 ubiquitin-protein ligase LNX (Homo sapiens), Q8TBB1 (parent)
chain: MNQPESANDPEPLCAVCGQAHSLEENHFYSYPEEVDDDLICHICLQALLDPLDTPCGHTYCTLCLTNFLVEKDFCPMDRKPLVLQHCKKSSILVNKLLNKLLVTCPFREHCTQVLQRCDLEHHFQTSCKGASHYGLTKDRKRRSQDGCPDGCASLTATAPSPEVSAAATISLMTDEPGLDNPAYVSSAEDGQPAISPVDSGRSNRTRARPFERSTIRSRSFKKINRALSVLRRTKSGSAVANHADQGRENSENTTAPEVFPRLYHLIPDGEITSIKINRVDPSESLSIRLVGGSETPLVHIIIQHIYRDGVIARDGRLLPGDIILKVNGMDISNVPHNYAVRLLRQPCQVLWLTVMREQKFRSRNNGQAPDAYRPRDDSFHVILNKSSPEEQLGIKLVRKVDEPGVFIFNVLDGGVAYRHGQLEENDRVLAINGHDLRYGSPESAAHLIQASERRVHLVVSRQVRQRSPDIFQEAGWNSNGSWSPGPGERSNTPKPLHPTITCHEKVVNIQKDPGESLGMTVAGGASHREWDLPIYVISVEPGGVISRDGRIKTGDILLNVDGVELTEVSRSEAVALLKRTSSSIVLKALEVKEYEPQEDCSSPAALDSNHNMAPPSDWSPSWVMWLELPRCLYNCKDIVLRRNTAGSLGFCIVGGYEEYNGNKPFFIKSIVEGTPAYNDGRIRCGDILLAVNGRSTSGMIHACLARLLKELKGRITLTIVSWPGTFL
partner: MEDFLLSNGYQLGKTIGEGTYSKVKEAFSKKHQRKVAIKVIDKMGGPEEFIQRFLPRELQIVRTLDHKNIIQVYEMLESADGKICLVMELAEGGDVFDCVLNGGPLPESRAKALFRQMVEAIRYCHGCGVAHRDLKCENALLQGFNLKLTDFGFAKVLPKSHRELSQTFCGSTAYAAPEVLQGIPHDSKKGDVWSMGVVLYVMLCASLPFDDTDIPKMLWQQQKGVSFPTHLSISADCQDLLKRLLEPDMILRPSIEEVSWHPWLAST
B3: E3 ubiquitin-protein ligase LNX (Homo sapiens), Q8TBB1 (parent)
chain: B2 chain
partner: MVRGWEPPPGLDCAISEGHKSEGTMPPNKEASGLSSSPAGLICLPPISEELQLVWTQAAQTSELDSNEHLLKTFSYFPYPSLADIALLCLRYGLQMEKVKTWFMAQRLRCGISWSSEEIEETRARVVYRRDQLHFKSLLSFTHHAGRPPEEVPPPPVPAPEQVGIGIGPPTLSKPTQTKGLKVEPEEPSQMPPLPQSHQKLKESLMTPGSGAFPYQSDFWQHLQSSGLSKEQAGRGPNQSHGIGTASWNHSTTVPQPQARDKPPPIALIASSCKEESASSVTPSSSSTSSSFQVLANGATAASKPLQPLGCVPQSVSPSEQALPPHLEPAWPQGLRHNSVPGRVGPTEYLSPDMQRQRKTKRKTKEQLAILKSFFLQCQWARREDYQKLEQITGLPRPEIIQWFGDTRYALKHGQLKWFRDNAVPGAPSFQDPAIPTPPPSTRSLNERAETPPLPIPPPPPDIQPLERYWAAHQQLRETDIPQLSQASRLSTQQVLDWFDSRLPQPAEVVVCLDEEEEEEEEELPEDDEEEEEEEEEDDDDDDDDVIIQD
B4: E3 ubiquitin-protein ligase LNX (Homo sapiens), Q8TBB1 (parent)
chain: B2 chain
partner: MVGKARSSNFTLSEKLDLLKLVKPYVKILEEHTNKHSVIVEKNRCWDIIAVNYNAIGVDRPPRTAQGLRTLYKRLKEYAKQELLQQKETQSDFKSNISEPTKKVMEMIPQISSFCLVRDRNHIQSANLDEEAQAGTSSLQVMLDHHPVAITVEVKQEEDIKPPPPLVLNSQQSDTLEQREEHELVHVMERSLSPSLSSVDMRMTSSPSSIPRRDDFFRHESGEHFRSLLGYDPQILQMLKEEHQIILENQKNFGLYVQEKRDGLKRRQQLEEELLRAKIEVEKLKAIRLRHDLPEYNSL
B5: E3 ubiquitin-protein ligase LNX (Homo sapiens), Q8TBB1 (parent)
chain: B2 chain
partner: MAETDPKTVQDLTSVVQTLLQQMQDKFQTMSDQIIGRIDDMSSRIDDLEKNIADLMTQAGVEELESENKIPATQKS
B6: E3 ubiquitin-protein ligase LNX (Homo sapiens), Q8TBB1 (parent)
chain: B2 chain
partner: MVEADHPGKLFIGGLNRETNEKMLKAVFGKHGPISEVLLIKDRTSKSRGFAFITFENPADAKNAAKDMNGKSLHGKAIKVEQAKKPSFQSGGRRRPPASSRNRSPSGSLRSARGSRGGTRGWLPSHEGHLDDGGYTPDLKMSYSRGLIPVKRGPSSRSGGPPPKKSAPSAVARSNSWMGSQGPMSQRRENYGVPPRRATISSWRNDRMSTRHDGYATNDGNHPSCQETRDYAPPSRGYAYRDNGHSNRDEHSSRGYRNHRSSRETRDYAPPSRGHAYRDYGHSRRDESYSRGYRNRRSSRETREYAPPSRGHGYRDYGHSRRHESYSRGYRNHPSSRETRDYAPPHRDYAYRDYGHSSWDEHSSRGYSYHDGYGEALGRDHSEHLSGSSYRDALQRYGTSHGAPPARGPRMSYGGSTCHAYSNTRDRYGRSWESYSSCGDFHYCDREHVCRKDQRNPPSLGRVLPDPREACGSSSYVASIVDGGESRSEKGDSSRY
B7: E3 ubiquitin-protein ligase LNX (Homo sapiens), Q8TBB1 (parent)
chain: B2 chain
partner: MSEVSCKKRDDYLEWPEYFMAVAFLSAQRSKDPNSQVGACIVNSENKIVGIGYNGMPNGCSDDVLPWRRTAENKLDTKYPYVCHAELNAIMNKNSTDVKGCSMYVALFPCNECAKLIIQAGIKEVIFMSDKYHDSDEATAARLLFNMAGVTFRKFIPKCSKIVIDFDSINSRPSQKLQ
B8: E3 ubiquitin-protein ligase LNX (Homo sapiens), Q8TBB1 (parent)
chain: B2 chain
partner: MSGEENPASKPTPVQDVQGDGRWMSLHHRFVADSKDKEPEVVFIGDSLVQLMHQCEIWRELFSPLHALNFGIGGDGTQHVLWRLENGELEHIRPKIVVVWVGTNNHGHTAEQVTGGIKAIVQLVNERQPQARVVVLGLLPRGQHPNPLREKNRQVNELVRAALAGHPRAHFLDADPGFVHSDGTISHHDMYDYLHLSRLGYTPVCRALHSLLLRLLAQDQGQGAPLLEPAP

The variants in the first experiment derive from B1. The note with it: with abi2_human ABI2, Q9NYB9.
Sequence of abi2_human ABI2, Q9NYB9 (Q9NYB9 whole entry): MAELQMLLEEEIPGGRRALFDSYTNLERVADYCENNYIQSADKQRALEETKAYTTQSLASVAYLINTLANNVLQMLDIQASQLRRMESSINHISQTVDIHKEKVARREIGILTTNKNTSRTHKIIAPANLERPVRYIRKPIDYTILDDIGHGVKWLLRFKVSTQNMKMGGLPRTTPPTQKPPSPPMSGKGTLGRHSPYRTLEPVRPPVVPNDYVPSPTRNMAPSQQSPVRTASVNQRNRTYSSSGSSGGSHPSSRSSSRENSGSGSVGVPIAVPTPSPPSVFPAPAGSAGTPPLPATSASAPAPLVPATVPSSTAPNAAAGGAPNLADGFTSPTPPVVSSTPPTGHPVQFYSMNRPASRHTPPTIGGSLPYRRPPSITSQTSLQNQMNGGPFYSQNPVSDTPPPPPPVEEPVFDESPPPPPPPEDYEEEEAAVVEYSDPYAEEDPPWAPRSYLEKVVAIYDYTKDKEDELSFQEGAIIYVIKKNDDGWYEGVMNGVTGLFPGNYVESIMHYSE
On to MSAKSKGNPSSSCPAEGPPAASKTKVKEQIKIIVEDLELVLGDLKDVAKELKEVVDQIDTLTSDLQLEDEMTDSSKTDTLNSSSSGTTASSLEKIKVPANAPLIKPPAHPSAILTVLRKPNPPPPPPRLTPVKCEDPKRVVPTANPVKTNGTLLRNGGLPGGPNKIPNGDICCIPNSNLDKAPVQLLMHRPEKDRCPQAGPRERVRFNEKVQYHGYCPDCDTRYNIKNREVHLHSEPVHPPGKIPHQGPPLPPTPHLPPFPLENGGMGISHSNSFPPIRPATVPPPTAPKPQKTILRKSTTTTV [Q98P], for which the “effect of a mutation on the interaction” value was “with no effect”.

In the next experiment the parent is B2. The settings on record: with tssk3_human TSSK3, Q96PN8.
Regarding E295K, the “effect of a mutation on the interaction” value was “disrupting interaction strength”.

In another experiment the parent is B3. The settings on record: with homez_human HOMEZ.
For E295K, the “effect of a mutation on the interaction” value is listed as “disrupting interaction strength”.

Variants of B4 are the subject of the next experiment. The note with it: with fsbp_human FSBP.
For E295K, the “effect of a mutation on the interaction” value is “disrupting interaction strength”.

A further experiment covers variants of B5. The settings on record: with hsbp1_human HSBP1, O75506.
E295K: the “effect of a mutation on the interaction” value is listed as “disrupting interaction strength”.

Variants of B6 are the subject of the next experiment. The settings on record: with rby1a_human RBMY1A1, P0DJD3.
In the case of E295K, the “effect of a mutation on the interaction” value was “disrupting interaction strength”.

Variants of B7 are the subject of another experiment. The settings on record: with dctd_human DCTD.
In the case of E295K, the “effect of a mutation on the interaction” value is listed as “disrupting interaction strength”.

Variants of B8 are the subject of another experiment. The note with it: with pa1b3_human PAFAH1B3, Q15102.
Consider E295K, for which the “effect of a mutation on the interaction” value is “disrupting interaction strength”.
